B1: PfHPPDm-F372A-02: Pseudomonas fluorescens HPPD mutant F372A, SEQ ID NO: 30 (protein)
chain: MADLYENPMGLMGFEFIEFASPTPGTLEPIFEIMGFTKVATHRSKNVHLYRQGEINLILNNEPNSIASYFAAEHGPSVCGMAFRVKDSQKAYNRALELGAQPIHIDTGPMELNLPAIKGIGGAPLYLIDRFGEGSSIYDIDFVYLEGVERNPVGAGLKVIDHLTHNVYRGRMVYWANFYEKLFNFREARYFDIKGEYTGLTSKAMSAPDGMIRIPLNEESSKGAGQIEEFLMQFNGEGIQHVAFLTDDLVKTWDALKKIGMRFMTAPPDTYYEMLEGRLPDHGEPVDQLQARGILLDGSSVEGDKRLLLQIASETLMGPVFFEFIQRKGDDGFGEGNFKALFESIERDQVRRGVLTAD
modifications: PfHPPDm-F372A Amino Acid Sequence
B2: AsHPPDm-F372A-A110: Avena sativa HPPD with F372A and deletion of alanine at position 110, SEQ ID NO: 412 (protein)
chain: MPPTPATATGAAAAAVTPEHAARSFPRVVRVNPRSDRFPVLSFHHVELWCADAASAAGRFSFALGAPLAARSDLSTGNSAHASLLLRSGALAFLFTAPYAPPPQEAATAATASIPSFSADAARTFAAAHGLAVRSVGVRVADAAEAFRVSVAGGARPAFAPADLGHGFGLAEVELYGDVVLRFVSYPDETDLPFLPGFERVSSPGAVDYGLTRFDHVVGNVPEMAPVIDYMKGFLGFHEFAEFTAEDVGTTESGLNSVVLANNSEAVLLPLNEPVHGTKRRSQIQTYLEYHGGPGVQHIALASNDVLRTLREMRARTPMGGFEFMAPPQAKYYEGVRRIAGDVLSEEQIKECQELGVLVDRDDQGVLLQIATKPVGDRPTFFLEMIQRIGCMEKDEVGQEYQKGGCGGFGKGNFSELFKSIEDYEKSLEVKQSVVAQKS
modifications: AsHPPDm-F372A-A110 Amino Acid Sequence
B3: AsHPPDm-F372A-02: Avena sativa HPPD mutant F372A, SEQ ID NO: 4; gene SEQ ID NO: 6 (protein)
chain: MPPTPATATGAAAAAVTPEHAARSFPRVVRVNPRSDRFPVLSFHHVELWCADAASAAGRFSFALGAPLAARSDLSTGNSAHASLLLRSGALAFLFTAPYAPPPQEAATAAATASIPSFSADAARTFAAAHGLAVRSVGVRVADAAEAFRVSVAGGARPAFAPADLGHGFGLAEVELYGDVVLRFVSYPDETDLPFLPGFERVSSPGAVDYGLTRFDHVVGNVPEMAPVIDYMKGFLGFHEFAEFTAEDVGTTESGLNSVVLANNSEAVLLPLNEPVHGTKRRSQIQTYLEYHGGPGVQHIALASNDVLRTLREMRARTPMGGFEFMAPPQAKYYEGVRRIAGDVLSEEQIKECQELGVLVDRDDQGVLLQIATKPVGDRPTFFLEMIQRIGCMEKDEVGQEYQKGGCGGFGKGNFSELFKSIEDYEKSLEVKQSVVAQKS
modifications: AsHPPDm-F372A Amido Acid Sequence
B4: ZmHPPDm-F372A-02: Zea mays HPPD mutant F372A, SEQ ID NO: 20 (protein)
chain: MPPTPTAAAAGAAVAAASAAEQAAFRLVGHRNFVRFNPRSDRFHTLAFHHVELWCADAASAAGRFSFGLGAPLAARSDLSTGNSAHASLLLRSGSLSFLFTAPYAHGADAATAALPSFSAAAARRFAADHGLAVRAVALRVADAEEAFRTSVAAGARPAFGPVDLGRGFRLAEVELYGDVVLRYVSYPDGAAGEPFLPGFEGVASPGAADYGLSRFDHIVGNVPELAPAAAYFAGFTGFHEFAEFTTEDVGTAESGLNSMVLANNSENVLLPLNEPVHGTKRRSQIQTFLDHHGGPGVQHMALASDDVLRTLREMQARSAMGGFEFMAPPTSDYYDGVRRRAGDVLTEAQIKECQELGVLVDRDDQGVLLQIAPKPVGDRPTLFLEIIQRIGCMERDEKGQEYQKGGCGGFGKGNFSQLFKSIEDYEKSLEAMQAAAAATAQGS
modifications: ZmHPPDm-F372A Amino Acid Sequence

What follows are molecules tested on soybean T1 plants (assay: Herbicide tolerance of transgenic soybean T1 plants to topramezone). Details: topramezone 50 and 100 g ai/ha, 7 DAT, compared to control vector DBN11375NN and wild-type.
Format: in vivo
Description: (§1) The Arabidopsisthaliana T1 plants into which the AsHPPDm-F372A-02 nucleotide sequence was introduced, Arabidopsis thaliana T1 plants into which the AsHPPD-02 nucleotide sequence was introduced and wild-type Arabidopsisthaliana plants (18 days after sowing) were sprayed with topramezone at four different concentrations, i.e., 25 g ai/ha (one-fold field concentration, 1×), 50 g ai/ha (two-fold field concentration, 2×), 100 g ai/ha (four-fold field concentration, 4×) and 0 g ai/ha (water, 0×) to determine the tolerance of Arabidopsisthaliana to the herbicide. The degree of damage caused by the herbicide was measured for each plant according to the proportion of bleached leaf area (the proportion of bleached leaf area=bleached leaf area/total leaf area×100%) 7 days after spraying (7 DAT): the case where there is basically no bleached phenotype is defined as grade 0, the case where the proportion of bleached leaf area is less than 50% is defined as grade 1,the case where the proportion of bleached leaf area is more than 50% is defined as grade 2, and the case where the proportion of bleached leaf area is 100% grade is defined as grade 3.
The soybean T1 plants into which the AsHPPDm-F372A-02 nucleotide sequence was introduced, soybean T1 plants into which the ZmHPPDm-F372A-02 nucleotide sequence was introduced, soybean T1 plants into which the PfHPPDm-F372A-02 nucleotide sequence was introduced, soybean T1 plants into which the AsHPPDm-F372A-A110 nucleotide sequence was introduced, soybean T1 plants into which, the PfHPPDm-F372A-G413W nucleotide sequence was introduced, soybean T1 plants into which the control vector DBN11375NN was introduced and wild-type soybean plants (V3-V4 at seedling stage) were sprayed with topramezone at two different concentrations respectively, i.e. 50 g ai/ha (2-fold field concentration, 2 ×) and 100 g ai/ha (4-fold field concentration, 4 ×) to detect the herbicide tolerance of soybean plants. According to the method in point 6 of Example 1, after 7 days of spraying (7 DAT), the damage degree of each plant by the herbicide was statistically analyzed, and the scoring and resistance evaluation were carried out accordingly. The soybean plants into which the AsHPPDm-F372A-02 nucleotide sequence was introduced were of two strains in total (S1 and S2), the soybean plants into which the ZmHPPDm-F372A-02 nucleotide sequence was introduced were of two strains in total (S3 and S4), the soybean plants into which the PfHPPDm-F372A-02 nucleotide sequence was introduced were of two strains in total (S5 and S6), the soybean plants into which the AsHPPDm-F372A-Al 10 nucleotide sequence was introduced were of two strains in total (S7 and S8), the soybean plants into which the PfHPPDm-F372A-G413W nucleotide sequence was introduced were of two strains in total (S9 and S10), the soybean plants into which the control vector DBN11375NN nucleotide sequence was introduced were of one strain in total (S11), and the wild-type soybean plants were of one strain in total (CK1); and 8 plants were selected from each strain and detected.
B1 was tested, and the “tolerance to topramezone, in words” value was “higher tolerance”.
With B2 the “tolerance to topramezone, in words” value was “higher tolerance”.
In the case of B3, the “tolerance to topramezone, in words” value is reported as “higher tolerance”.
In the case of B4, the “tolerance to topramezone, in words” value is reported as “higher tolerance”.

These molecules were tested on rice T1 plants (assay: Herbicide tolerance of transgenic rice T1 plants to topramezone). Details: topramezone 50 and 100 g ai/ha, 7 DAT, compared to wild-type.
Format: in vivo
Description: as §1
The rice T1 plants into which the AsHPPDm-F372A-02 nucleotide sequence was introduced, rice T1 plants into which the AsHPPDm-F372A-A110 nucleotide sequence was introduced, rice T1 plants into which the ZmHPPDm-F372A-02 nucleotide sequence was introduced, rice T1 plants into which the PfHPPDm-F372A-02 nucleotide sequence was introduced and wild-type rice plants (V3-V4 at seedling stage) were sprayed with topramezone at two different concentrations respectively, i.e. 50 g ai/ha (2-fold field concentration, 2 ×) and 100 g ai/ha (4-fold field concentration, 4 ×) to detect the herbicide tolerance of rice plants. According to the method in point 6 of Example 1, after 7 days of spraying (7 DAT), the damage degree of each plant by the herbicide was statistically analyzed, and the scoring and resistance evaluation were carried out accordingly. The rice T1 plants into which AsHPPDm-F372A-02 nucleotide sequence was introduced were of two strains in total (S12 and S13), rice T1 plants into which AsHPPDm-F372A-A1 10 nucleotide sequence was introduced were of two strains in total (S14 and S15), rice T1 plants into which ZmHPPDm-F372A-02 nucleotide sequence was introduced were of two strains in total (S16 and S17), rice T1 plants into which PfHPPDm-F372A-02 nucleotide sequence was introduced were of two strains in total (S18 and S19), and the wild-type rice plants were of one strain in total (CK2); and 8 plants were selected from each strain and tested.
In the case of B1, the “tolerance to topramezone, in words” value is reported as “higher tolerance”.
In the case of B2, the “tolerance to topramezone, in words” value is reported as “higher tolerance”.
For B3, the “tolerance to topramezone, in words” value was “higher tolerance”.
With B4 the “tolerance to topramezone, in words” value was “higher tolerance”.

Each molecule was assayed on soybean T1 plants (assay: Tolerance of transgenic soybean T1 plants to isoxaflutole). Details: isoxaflutole 140 and 280 g ai/ha, 7 DAT, compared to control vector and wild-type.
Format: in vivo
Description: as §1
(§2) In order to further verify the tolerance effect of HPPD (F372A) on other HPPD inhibitors, the soybean T1 plants into which the AsHPPDm-F372A-02 nucleotide sequence was introduced, soybean T1 plants into which the ZmHPPDm-F372A-02 nucleotide sequence was introduced, soybean T1 plants into which the PfHPPDm-F372A-02 nucleotide sequence was introduced, soybean T1 plants into which the AsHPPDm-F372A-A110 nucleotide sequence was introduced, soybean T1 plants into which the control vector DBN11375NN was introduced in Example 8, and the wild-type soybean plants (V3-V4 at seedling stage) were sprayed as follows to detect the herbicide tolerance of each soybean plants, (1) 140 g ai/ha (2-fold field concentration, 2 ×) isoxaflutole; (2) 280 g ai/ha (4-fold field concentration, 4 ×) isoxaflutole; (3) 210 g ai/ha (2-fold field concentration, 2 ×) mesotrione; (4) 420 g ai/ha (4-fold field concentration, 4 ×) mesotrione. According to the method in point 6 of Example 1, after 7 days of spraying (7 DAT), the damage degree of each plant by the herbicide was statistically analyzed, and the scoring and resistance evaluation were carried out accordingly. […]
For B1, the “tolerance to isoxaflutole, in words” value was “different degrees of tolerance”.
B2 was tested, and the “tolerance to isoxaflutole, in words” value was “different degrees of tolerance”.
For B3, the “tolerance to isoxaflutole, in words” value was “different degrees of tolerance”.
With B4 the “tolerance to isoxaflutole, in words” value was “different degrees of tolerance”.

The molecules below were run on soybean T1 plants (assay: Tolerance of transgenic soybean T1 plants to mesotrione). Details: mesotrione 210 and 420 g ai/ha, 7 DAT, compared to control vector and wild-type.
Format: in vivo
Description: as §1, §2
With B1 the “tolerance to mesotrione, in words” value was “different degrees of tolerance”.
For B2, the “tolerance to mesotrione, in words” value was “different degrees of tolerance”.
In the case of B3, the “tolerance to mesotrione, in words” value is reported as “different degrees of tolerance”.
B4 was tested, and the “tolerance to mesotrione, in words” value was “different degrees of tolerance”.
